Drawing on patent publication US20260217862A1 (NBIOS, published 2026), this text covers Kd for 1 molecule.

In this assay the target is T1, Human Integrin αVβ3 (human, UniProt P06756 31-992; P05106 27-718).
T1 construct: Commercial heterodimer from ACROBiosystems; No catalogue number or construct limits are printed; also called Integrin aVß3; integrin (ITG)
Kind of assay: ELISA, CtsZ coated 200 ng/well, integrin αVβ3 titrated from 200 nM in 1/3 steps, detected with biotinylated anti-integrin alpha V antibody and streptavidin-HRP. How it is done: After coating 1×PBS (pH 7.4) containing 200 ng of CtsZ in each well of a 96-well high-binding plate at 4° C. for 16 hours, followed by washing twice with a washing buffer (20 mM Tris-HCl, 150 mM NaCl, 1 mM MnCl₂, 0.05% Tween-20), blocking was performed at room temperature for 2 hours using a blocking buffer (washing buffer containing 3% BSA). After washing twice with a washing buffer, binding was performed at room temperature for 2 hours using a dilution buffer (washing buffer containing 0.5% BSA) containing 200 nM, ⅓ eq. integrin αVβ3. After washing 4 times with a washing buffer, biotinylated anti-human integrin alpha V antibody (diluted to 1:100 with dilution buffer) was treated at room temperature for 1 hour. After washing 4 times with a washing buffer, HRP-conjugated streptavidin was treated at room temperature for 1 hour. After washing 4 times with a washing buffer, followed by addition of ultra TBM matrix, reaction was performed for 2 minutes and the reaction was stopped by adding 2 M H₂SO₄. KD values were calculated from the absorbance at 450 nm using the Prism7 software.
Because CtsZ has an RGD motif binding to integrin, particularly integrin αVβ3, in the pro-region, it was investigated whether the purified CtsZ was in active form by measuring binding affinity for integrin αVβ3 purchased from ACROBiosystems.
In general terms: An ELISA detects its analyte on a solid surface through an enzyme-linked reagent.

T1 sequence (P06756 31-992 limits assumed, chain 1 of 2): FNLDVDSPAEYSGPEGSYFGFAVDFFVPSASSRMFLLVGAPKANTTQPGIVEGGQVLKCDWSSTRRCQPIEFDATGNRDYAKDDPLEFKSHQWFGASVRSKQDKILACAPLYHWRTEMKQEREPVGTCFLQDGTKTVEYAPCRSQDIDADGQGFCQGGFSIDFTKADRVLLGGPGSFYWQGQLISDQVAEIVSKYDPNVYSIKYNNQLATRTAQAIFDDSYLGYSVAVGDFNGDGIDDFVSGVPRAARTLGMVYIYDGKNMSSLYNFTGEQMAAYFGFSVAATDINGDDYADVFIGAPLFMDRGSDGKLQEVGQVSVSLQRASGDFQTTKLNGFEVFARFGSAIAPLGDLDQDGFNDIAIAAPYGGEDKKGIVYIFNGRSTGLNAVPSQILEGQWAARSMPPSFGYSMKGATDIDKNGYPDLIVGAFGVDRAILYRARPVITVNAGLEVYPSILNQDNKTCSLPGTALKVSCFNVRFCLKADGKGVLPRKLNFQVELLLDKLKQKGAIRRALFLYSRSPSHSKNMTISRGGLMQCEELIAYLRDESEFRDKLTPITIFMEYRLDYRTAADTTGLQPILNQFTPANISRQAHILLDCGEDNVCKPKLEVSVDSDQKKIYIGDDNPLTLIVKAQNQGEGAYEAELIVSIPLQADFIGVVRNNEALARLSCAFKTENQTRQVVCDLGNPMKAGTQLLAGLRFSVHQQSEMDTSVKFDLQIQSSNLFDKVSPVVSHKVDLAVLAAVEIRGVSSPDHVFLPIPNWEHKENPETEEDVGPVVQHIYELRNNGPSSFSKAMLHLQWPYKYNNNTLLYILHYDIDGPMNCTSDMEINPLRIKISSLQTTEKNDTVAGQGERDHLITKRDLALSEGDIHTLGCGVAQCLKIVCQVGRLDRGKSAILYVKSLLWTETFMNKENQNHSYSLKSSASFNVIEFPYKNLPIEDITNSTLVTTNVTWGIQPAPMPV
T1 sequence (P05106 27-718 limits assumed, chain 2 of 2): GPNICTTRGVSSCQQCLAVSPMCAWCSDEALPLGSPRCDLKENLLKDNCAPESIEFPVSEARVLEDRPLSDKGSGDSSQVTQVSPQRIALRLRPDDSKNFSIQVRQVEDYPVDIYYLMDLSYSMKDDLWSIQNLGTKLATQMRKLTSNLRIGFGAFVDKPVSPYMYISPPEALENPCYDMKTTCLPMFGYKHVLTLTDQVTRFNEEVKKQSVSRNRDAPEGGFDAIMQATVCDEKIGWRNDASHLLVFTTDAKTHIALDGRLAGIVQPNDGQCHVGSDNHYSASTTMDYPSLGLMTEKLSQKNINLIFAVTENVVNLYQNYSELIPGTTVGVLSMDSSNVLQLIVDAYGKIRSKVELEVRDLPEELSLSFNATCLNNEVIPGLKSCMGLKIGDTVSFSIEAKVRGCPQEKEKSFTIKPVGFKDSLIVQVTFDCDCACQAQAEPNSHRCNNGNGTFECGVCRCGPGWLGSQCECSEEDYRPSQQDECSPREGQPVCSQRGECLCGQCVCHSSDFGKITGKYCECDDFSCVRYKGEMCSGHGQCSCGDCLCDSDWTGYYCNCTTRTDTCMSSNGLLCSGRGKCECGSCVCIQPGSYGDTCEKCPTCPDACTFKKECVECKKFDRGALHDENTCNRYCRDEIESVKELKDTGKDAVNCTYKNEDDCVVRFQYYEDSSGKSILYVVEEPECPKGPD

B1: recombinant human cathepsin Z with C-terminal 6x-His tag (enzyme)
chain: not shown
notes: Secreted from Expi-293F cells and purified on Ni-NTA; Glycosylated, about 37 kDa on SDS-PAGE against 33 kDa predicted; also called CtsZ; purified CtsZ
As usually defined, the Kd is a measure of binding affinity in units of concentration. A lower Kd goes with a tighter complex. Turning to B1, the dissociation constant (Kd) is ~137 nM.
